From US20050154189A1 (MAXYGEN, published 2005) come the findings set out here.

The chains are these.
B1: Round 2 CTLA4BP 5x3-e8 (ligand)
chain: VIHVTKEVKEVATLSCGHNVSVEELAQTRIYWQKEKKMVLTMMSGDMNIWPEYKNRTIFDITNNLSIVILALRPSDEGTYECVVLEYEKDAFKREHLAEVTLSVKADFPTPSISDFEIPTSNIRRIICSTSGGFPEPHLFWLENGEELNAINTTVSQDPETELYTVSSKLDFNMTANHSFVCLIKYGHLRVNQTFNWNTPKQEHFPDNLLPSWAITLISVNGIFVICCLTYCFAPGCRERRRNERLRRESVCPV
B2: Round 2 CTLA4BP 5x6-f6 (ligand)
chain: VIHVTKEVKEVATLSCGHNVSVEELAQTPIYWQKEKKMVLTMMSGDMNIWPEYKNRTIFDITNNLSIVILALRPSDEGTYECVVLKYEKDAFKREHLAEVMLSVKADFPTPSITDFEIPPSNIRRIICSTSGGFPEPHLFWLENGEELNAINTTVSQDPETELYTVSSKLDFNMTTNRSFVCLIKYGHLRVNQTFNWNTPKQEHFPDNLLPSWAITLISANGIFVICCLTYRFAPRCRERRRNERLRRESVCPV
B3: Round 2 CTLA4BP-5x2-4c (ligand)
chain: VIHVTKEVKEVATLSCGLNVSVEELAQTRIYWQKEKKMVLTMMSGDMNIWPEYKNRTIFDITNNLSIVILALRPSDEGTYECVVLEYEKDAFKREHLAEVMLSVKADFPTPSISDFEIPPSNIRRIICSTSGGFPEPHLSWLENGEELNGINTTVSQDPETELYTVSSKLDFNMTTNRSFVCLIKYGHLRVNQTFNWNTPKQEHFPDNLLPSWAITLISVNGIFVICCLTYCFAPRCRERRRNERLRRESVHPV
B4: Round 2 CTLA4BP-5x3-6f (ligand)
chain: VIHVTKEVKEVATLSCGHNVSVEELAQTRIYWQKGKKMVLTMMSGDMNIWPEYKNRTIFDITNNLSIVILALRPSDEGTYECVVLEYEKDAFKREHLAEVMLSVKADFPTPSISDFEIPTSNIRRIICSTSGGFPEPHLSWLENGEELNAINTTASQDPETELYTVSSKLDFNMTTNHSFMCLIKYGHLRVNQTFNWNTPKQEHFPDNLLPSWAITLISANGIFVICCLAYCFAPGCRERKSNERLRRESVRPV
B5: Round 2 CTLA4BP-5x2-2g (ligand)
chain: VIHVTKEVKEVATLSCGHNVSVEELAQTRIHWQKEKKMVLTMMSGDMNIWPEYKNRTIFDITNNLSIVILALRPSDEGTYECVVLKYEKDAFKREHLAEVMLSVKADFPTPSITDFEIPTSNIRRIICSTSGGFPEPHLSWLENGEELNAINTTVSQDPETELYTVSSKLDFNMTTNHSFMCLIKYGHLRVNQTFNWNTPKQEHFPDNLLPSWAITLISVNGIFVICCLTYRFAPRCRERKSNERLRRESVRPV
B6: Round 2 CTLA4BP 5x4-a1 (ligand)
chain: VIHVTKEVKEVATLSCGHNVSVEELAQTRIYWQKEKKMVLTMMSGDMNIWPEHKNRTIFDITNNLSIVILALRPSDEGTYECVVLKYEKDAFKREHLAEVTLSVKADFPTPSITDFEIPTSNIRRIICSTSGGFPEPHLSWLENGEELNAINTTVSQDPGTELYTVSSKLDFNMTTNRSFVCLIKYGHLRVNQTFNWNTPKQEHFPDNLLPSWAITLISVNGIFVICCLTYCFAPRCRERRRNERLRRESVRPV
B7: Round 2 CTLA4BP-5x2-8c (ligand)
chain: VIHMTKEVKEVATLSCGHNVSVEELAQTRIYWQKEKKMVLTMMSGDMNIWPEYKNRTIFDITNNLSIVILALRPSDEGTYECVVLKYEKDAFKQEHLAEVMLSVKADFPTPSITDFEIPPSNIRRIICSTSGGFPEPHLFWLENGEELNAINTTVSQDPETELYAVSSKLDFNMTTNHSFVCLIKYGHLRVNQTFNWNTPKQEHFPDNLLPSWAITLISANGIFVICCLTYCFAPRCRERRRNERLRRESVHPV
B8: Round 2 CTLA4BP-5x2-3c (ligand)
chain: VIHVTREVKEVATLSCGHNVSVEELAQTRIHWQKEKKMVLTMMSGDMNIWPEYKNRTIFDITNNLSIVILALRPSDEGTYECVVLKYEKDAFKREHLAEVMLSVKADFPTPSISDFEIPTSNIRRIICSTSGGFPEPHLSWLENGEELNAINTTVSQDPETGLYTVSSKLDFNMTTNHSFMCLIKYGHLRVNQTFNWNTPKQEHFPDNLLPSWAITLISVNGIFVICCLTYCFAPRCRERRRNERLRRESVCPV
B9: Round 2 CTLA4BP 5x5-h12 (ligand)
chain: VIHVTKKVKEVATLSCGHNVSVEELAQTRIHWQKEKKMVLTMMSGDMNIWPEYKNRTIFDITNNLSIVILALRPSDEGTYECVVLKYEKDAFKREHLAEVMLSVKADFPTPSISDFEIPPSNIRRIICSTSGGFPEPHLSWLENGEELNAINTTVSQDPGTELYTVSSKLDFNMTTDRSFVCLIKYGHLRVNQTFNWNTPKQEHFPDNLLPSWAITLISVNGIFVICCLTYCFAPRCRERRRNGRLRRESVRPV
B10: Round 2 CTLA4BP 5x5-c10 (ligand)
chain: VIHVTKEVKEVATLSCGHNVSVEELAQTRIYWQKEKKMVLTMMSGDMNIWPEYKNRTIFDITNNLSIVILALRPSDEGTYECVVLEYEKDAFKREHLAEVTLSVKADFPTPSITDFEIPPSNIRRIICSTSGGFPEPHLFWLENGEELNAISTTVSQDPETELYAVSSKLDFNMTTNHSFMCLIKYGHLRVNQTFNWNTTKQEHFPDNLLPSWAITLISVNGIFVICCLTYCFAPRCRERRRNERLRRESVHPV
B11: Round 2 CTLA4BP 5x9-d10 (ligand)
chain: VIHVTKEVKEVATLSCGLNVSVEELAQTRIYWQKGKKMVLTMMSGDMNIWPEYKNRTIFDITNNLSIVILALRPSDEGTYECVVLEYEKDAFKREHLAEVMLSVKADFPTPSISDFEIPPSNIRRIICSTSGGFPEPHLSWLENGEELNAINTTASQDPGTELYTVSSKLDFNMTTNHSFMCLIKYGHLRVNQTFNWNTPKQEHFPDNLLPSWAITLISVNGIFVICCLTHCFAPRCRERRRNERLRRESARPV
B12: Round 2 CTLA4BP-5x2-7b (ligand)
chain: VIHVTKEVKEVATLSCGHNVSVEELAQTRIHWQKEKKMVLTMMSGDMNIWPEYKNRTIFDITNNLSIVILALRPSDEGTYECVVLKYEKDAFKREHLAEVTLSVKAGFPTPSITDFEIPPSNIRRIICSTSGGFPEPHLSWLENGEELNAINTTVSQDPGTELYTVSSKLDFNMTANHSFVCLIKYGHLRVNQTFNWNTPKQEHFPDNLLPSWAITLISANGIFVICCLTYCFAPRCRERRRNERLRRESVRPV
B13: Round 2 CTLA4BP 5x4-h1 (ligand)
chain: VIHVTKEVKEVATLSCGHNVSVEELAQTRIHWQKEKKMVLTMMSGDMNIWPEYKNRTIFDITNNLSIVILALRPSDEGTYECVVLKYEKDAFKRKHLAEVMLSVKADFPTPSISDFEIPTSNIRRIICSTSGGFPEPHLFWLENGEELNAINTTASQDPETELYTVSSKLDFNMTTNRSFVCLIKYGHLRVNQTFNWNTPKQEHFPNNLLPSWAITLISVNGIFVICCLTYCFAPRCRERRRNETLRRESVHPV
B14: Round 2 CTLA4BP-5X2-12F (ligand)
chain: VIHVTKEVKEVATLSCGHNVSVEELAQTRIHWQKEKKMVLTMMSGDMNIWPEYKNRTIFDITNNLSIVILALRPSDEGTYECVVLKYEKDAFKREHLAEVTLSVKADFPTPSITDFEIPPSNIKRIICSTSGGFPEPHLSWLENGEELNAINTTVSQDPETELYTVSSKLDFNMTTNHSFMCLIKYGHLRVNQTFNWNTPKQEHFPDNPLPSWAITLISANGIFVICCLTYCFAPRCRERRRNETLRRESVRPV

In this test the target is T1, Soluble CTLA-4-Ig (human, UniProt P16410 36-161, FITC-conjugated in the two-colour FACS assays; unlabelled and detected with FITC goat anti-human IgG in the concentration-dependent assay).
T1 construct: extracellular domain; Bought from R&D Systems; also called sCTLA-4-Ig; CTLA-4-Ig Fc; not shown: Fc portion of human IgG1
T1 sequence (P16410 36-161): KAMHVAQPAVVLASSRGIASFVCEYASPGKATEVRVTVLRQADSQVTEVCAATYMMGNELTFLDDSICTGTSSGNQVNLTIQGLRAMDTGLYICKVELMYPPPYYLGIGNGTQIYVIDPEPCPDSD
Briefly: two-colour FACS profile on transfected cells; score of preference for CTLA-4-Ig over CD28-Ig vs WT hB7-1.
On to B1, for which the “Binding Score” value was 1. For B2, the “Binding Score” value was 1.

Take B3: the “Binding Score” value turned out to be 1. With B4, the “Binding Score” value was found to be 2.

As for B5, the “Binding Score” value came out at 2. On to B6, for which the “Binding Score” value amounted to 0. Then B7, with 2; and B8, with 2. Consider B9, for which the “Binding Score” value turned out to be 1.

Consider B10, for which the “Binding Score” value was 1. Consider B11, for which the “Binding Score” value came to 1. As for B12, the figure is 1; as for B13, 2; as for B14, 1.
